Data on three molecules can be found in US20180111972A1 (Stanford University, published 2018).

Where two headings read alike, the source gives them in different places.

Experiment [1] has as its target T1, PDGFRβ-Fc (residues 1-314 of PDGFR-β fused to the Fc region of mouse IgG2a) (human; mouse, UniProt P09619 33-314).
T1 construct: range 1-314; Expressed in FreeStyle 293-F cells; also called PDGRβ-Fc; PDGFR-Fc; not shown: Fc region of mouse IgG2a
Put plainly: yeast surface display titration; PDGF taken as yeast-displayed scPDGF.

Experiment [2] addresses T1, PDGFRβ-Fc (residues 1-314 of PDGFR-β …). As to the kind of experiment: titration on yeast-displayed scPDGF, flow cytometry, anti-mouse-Fc. The method, then:
(§1) Cells were incubated in large enough volumes to avoid ligand depletion and appropriate time to reach equilibrium. During the last hour of incubation, yeast were incubated with 1:250 dilution of chicken anti-c-Myc (Invitrogen) in PBSA. […] Yeast were washed, pelleted, and resuspended in PBSA immediately before analysis by flow cytometry using BD FACSCalibur or BD Accuri C6. Flow cytometry data were analyzed using FlowJo (v7.6.1 and v10, Treestar) or BD Accuri C6 software. Statistical analysis was performed using GraphPad Prism 6.
(§2) Bound protein was detected using fluorescently-labeled anti-His and anti-mouse-Fc antibodies.
On the technique in general: In flow cytometry, cells or beads pass a laser one at a time.

Experiment [3] deals with T2, PDGFRβ-His (residues 1-314 of PDGFR-β with C-terminal hexahistidine tag) (human, UniProt P09619 33-314).
T2 construct: range 1-314; Monovalent form, expressed in FreeStyle 293-F cells; also called PDGRβ-His; PDGFR-His
Put plainly: titration on yeast-displayed scPDGF, flow cytometry, anti-His. The procedure:
as §1, §2

The target of experiment [4] is T3, mouse VEGFR on SVR murine angiosarcoma endothelial cells (mouse).
T3 construct: whole, on cells
T3 sequence (P35918 20-1345): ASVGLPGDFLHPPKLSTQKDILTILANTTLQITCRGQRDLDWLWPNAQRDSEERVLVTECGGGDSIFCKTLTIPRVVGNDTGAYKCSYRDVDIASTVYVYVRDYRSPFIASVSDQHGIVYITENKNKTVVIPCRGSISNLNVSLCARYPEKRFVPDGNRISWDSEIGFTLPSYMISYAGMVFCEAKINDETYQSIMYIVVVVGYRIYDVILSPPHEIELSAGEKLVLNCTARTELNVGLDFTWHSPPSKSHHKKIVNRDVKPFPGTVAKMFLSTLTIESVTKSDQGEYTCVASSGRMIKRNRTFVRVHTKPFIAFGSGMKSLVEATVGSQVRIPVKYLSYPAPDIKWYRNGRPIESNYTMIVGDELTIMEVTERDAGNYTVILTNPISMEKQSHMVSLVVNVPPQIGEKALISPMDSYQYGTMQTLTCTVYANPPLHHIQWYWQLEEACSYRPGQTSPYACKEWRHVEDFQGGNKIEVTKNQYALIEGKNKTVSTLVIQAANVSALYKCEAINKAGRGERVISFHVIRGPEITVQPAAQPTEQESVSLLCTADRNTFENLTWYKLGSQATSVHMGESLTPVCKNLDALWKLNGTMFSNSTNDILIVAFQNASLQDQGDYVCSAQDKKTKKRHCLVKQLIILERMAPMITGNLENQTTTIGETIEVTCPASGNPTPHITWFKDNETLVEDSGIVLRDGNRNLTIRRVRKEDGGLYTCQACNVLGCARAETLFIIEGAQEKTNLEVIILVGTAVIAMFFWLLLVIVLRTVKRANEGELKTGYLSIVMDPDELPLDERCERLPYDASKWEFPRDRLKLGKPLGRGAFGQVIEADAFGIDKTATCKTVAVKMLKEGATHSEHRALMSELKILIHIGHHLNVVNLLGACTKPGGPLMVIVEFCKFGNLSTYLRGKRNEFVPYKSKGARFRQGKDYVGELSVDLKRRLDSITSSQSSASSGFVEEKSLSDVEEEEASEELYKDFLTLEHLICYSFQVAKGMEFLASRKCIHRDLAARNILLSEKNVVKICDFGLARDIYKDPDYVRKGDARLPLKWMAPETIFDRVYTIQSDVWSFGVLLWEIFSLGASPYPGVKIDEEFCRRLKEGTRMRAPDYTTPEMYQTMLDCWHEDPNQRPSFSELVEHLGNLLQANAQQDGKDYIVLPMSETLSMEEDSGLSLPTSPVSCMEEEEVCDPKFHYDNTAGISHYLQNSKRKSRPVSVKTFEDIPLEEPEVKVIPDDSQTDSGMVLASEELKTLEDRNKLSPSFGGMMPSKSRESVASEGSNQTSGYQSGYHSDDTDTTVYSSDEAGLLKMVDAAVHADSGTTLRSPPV
As to the kind of experiment: flow cytometry titration of the soluble FLAG-tagged protein on SVR cells, anti-FLAG detection. The procedure: (§3) To test binding to VEGFR, human umbilical vein endothelial cells (HUVECs) and murine angiosarcoma endothelial cells (SVR) were used.
(§4) Cell-binding assay. Varying concentrations of scPDGF, scVEGF, and PDGF/VEGF ligands were incubated with 25,000 PDGFR- or VEGFR-expressing cells in binding buffer (20 mM Tris pH 7.5 with 1 mM MgCl₂, 1 mM MnCl₂, 2 mM CaCl₂, 100 mM NaCl, and 1 mg/ml BSA) for 5 hr (BJ-5ta, NIH/3T3) or 3 hr (HUVEC, SVR) at 4° C. Cells were washed and pelleted, then incubated with 1:100 R-PE-conjugated anti-FLAG antibody (Prozyme) for 15 min on ice. Cells were washed, pelleted, and resuspended in binding buffer immediately before analysis by flow cytometry using BD Accuri C6. Flow cytometry data were analyzed using BD Accuri C6 software, and statistical analysis was performed using GraphPad Prism 6.

The target in experiment [5] is T4, VEGFR2-His (residues 1-764 of VEGFR2, Ig-like domains 1-7, with hexahistidine tag) (human, UniProt P35968 20-764).
T4 construct: range 1-764; Monomeric form, expressed in FreeStyle 293-F cells; also called VEGFR-His
T4 sequence (P35968 other isoform, or with tags, fused parts or gaps limits assumed, form in doubt): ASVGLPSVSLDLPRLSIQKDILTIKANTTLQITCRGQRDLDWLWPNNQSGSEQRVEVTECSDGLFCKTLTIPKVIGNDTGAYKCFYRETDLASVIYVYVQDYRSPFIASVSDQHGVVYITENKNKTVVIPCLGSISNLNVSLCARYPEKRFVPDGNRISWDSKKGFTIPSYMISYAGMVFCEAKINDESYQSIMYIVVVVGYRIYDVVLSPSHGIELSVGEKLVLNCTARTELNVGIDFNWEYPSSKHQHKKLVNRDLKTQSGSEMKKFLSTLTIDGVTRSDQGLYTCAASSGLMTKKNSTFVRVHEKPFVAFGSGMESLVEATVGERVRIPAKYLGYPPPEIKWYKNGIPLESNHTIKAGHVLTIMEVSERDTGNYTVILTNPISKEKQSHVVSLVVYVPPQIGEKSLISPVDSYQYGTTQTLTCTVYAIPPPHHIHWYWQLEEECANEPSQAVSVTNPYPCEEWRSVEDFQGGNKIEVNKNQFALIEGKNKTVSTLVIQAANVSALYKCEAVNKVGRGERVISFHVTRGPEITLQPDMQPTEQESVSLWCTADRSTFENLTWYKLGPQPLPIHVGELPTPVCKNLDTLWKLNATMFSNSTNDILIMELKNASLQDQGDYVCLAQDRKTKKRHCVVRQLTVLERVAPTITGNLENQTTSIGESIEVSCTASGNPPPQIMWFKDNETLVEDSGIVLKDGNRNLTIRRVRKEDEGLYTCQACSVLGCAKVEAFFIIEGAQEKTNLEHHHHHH
As to the kind of experiment: KinExA Kinetics Injection. The procedure:
(§5) Additionally, the kinetic parameter kₒₙ can be determined by using a “kinetics injection” experiment. A constant concentration of PDGF/VEGF ligand is injected with an equal volume of differing concentrations of PDGRβ-His or VEGFR2-His. The two solutions are allowed to mix briefly (several seconds) in the time required for the instrument to deliver the mixture to the detection bead column. The pre-equilibrium concentrations of free ligand is fit to the standard bimolecular rate equation to obtain kₒₙ.
(§6) Kinetic Exclusion Assay (KinExA). All experiments were performed on a KinExA 3200 instrument with siliconized flow cell (Sapidyne Instruments Inc). […] 30 μg of receptor was incubated in 1 ml of 50 mM sodium bicarbonate, 0.5 M sodium citrate buffer, pH 8.3, for 2 hr at room temperature with rocking. Beads were allowed to settle by gravity and liquid removed. Beads were blocked by incubating in 1 ml of 10 mg/ml BSA in 1 M Tris buffer, pH 8.0, for 1 hr at room temperature with rocking, and stored in blocking buffer at 4° C. for up to one week until use. Running buffer contained PBS with 10 mM imidazole and 0.02% sodium azide. Samples were prepared in running buffer with 1 mg/ml BSA. Binding reactions were prepared with a fixed concentration of PDGF/VEGF ligands and dilution series of PDGFR or VEGFR. Captured PDGF/VEGF ligands were detected using a Dylight 649-conjugated anti-FLAG antibody (Rockland) at 1:1000 dilution in sample buffer. Kinetic experiments were performed with the “Kinetics Injection” method defined in the KinExA software. Data were analyzed with KinExA Pro Software. The Kd was determined from a global fit of two concentration curves using the “n-curve analysis” tool and the titrant concentrations as reference. […] The kₒₙ was calculated as a fit of the pre-equilibrium free ligand concentrations to the bimolecular binding equation using the “Kinetics Injection” tool.

The target in experiment [6] is T2, PDGFRβ-His (residues 1-314 of PDGFR-β …). As to the kind of experiment: KinExA Kinetics Injection. The procedure: as §5, §6
For experiment [7], the target named is T5, human VEGFR on human umbilical vein endothelial cells (HUVECs) (human, UniProt P35968 20-1356).
T5 construct: The phosphorylation blots on these cells detect VEGFR2
T5 sequence (P35968 20-1356 limits assumed): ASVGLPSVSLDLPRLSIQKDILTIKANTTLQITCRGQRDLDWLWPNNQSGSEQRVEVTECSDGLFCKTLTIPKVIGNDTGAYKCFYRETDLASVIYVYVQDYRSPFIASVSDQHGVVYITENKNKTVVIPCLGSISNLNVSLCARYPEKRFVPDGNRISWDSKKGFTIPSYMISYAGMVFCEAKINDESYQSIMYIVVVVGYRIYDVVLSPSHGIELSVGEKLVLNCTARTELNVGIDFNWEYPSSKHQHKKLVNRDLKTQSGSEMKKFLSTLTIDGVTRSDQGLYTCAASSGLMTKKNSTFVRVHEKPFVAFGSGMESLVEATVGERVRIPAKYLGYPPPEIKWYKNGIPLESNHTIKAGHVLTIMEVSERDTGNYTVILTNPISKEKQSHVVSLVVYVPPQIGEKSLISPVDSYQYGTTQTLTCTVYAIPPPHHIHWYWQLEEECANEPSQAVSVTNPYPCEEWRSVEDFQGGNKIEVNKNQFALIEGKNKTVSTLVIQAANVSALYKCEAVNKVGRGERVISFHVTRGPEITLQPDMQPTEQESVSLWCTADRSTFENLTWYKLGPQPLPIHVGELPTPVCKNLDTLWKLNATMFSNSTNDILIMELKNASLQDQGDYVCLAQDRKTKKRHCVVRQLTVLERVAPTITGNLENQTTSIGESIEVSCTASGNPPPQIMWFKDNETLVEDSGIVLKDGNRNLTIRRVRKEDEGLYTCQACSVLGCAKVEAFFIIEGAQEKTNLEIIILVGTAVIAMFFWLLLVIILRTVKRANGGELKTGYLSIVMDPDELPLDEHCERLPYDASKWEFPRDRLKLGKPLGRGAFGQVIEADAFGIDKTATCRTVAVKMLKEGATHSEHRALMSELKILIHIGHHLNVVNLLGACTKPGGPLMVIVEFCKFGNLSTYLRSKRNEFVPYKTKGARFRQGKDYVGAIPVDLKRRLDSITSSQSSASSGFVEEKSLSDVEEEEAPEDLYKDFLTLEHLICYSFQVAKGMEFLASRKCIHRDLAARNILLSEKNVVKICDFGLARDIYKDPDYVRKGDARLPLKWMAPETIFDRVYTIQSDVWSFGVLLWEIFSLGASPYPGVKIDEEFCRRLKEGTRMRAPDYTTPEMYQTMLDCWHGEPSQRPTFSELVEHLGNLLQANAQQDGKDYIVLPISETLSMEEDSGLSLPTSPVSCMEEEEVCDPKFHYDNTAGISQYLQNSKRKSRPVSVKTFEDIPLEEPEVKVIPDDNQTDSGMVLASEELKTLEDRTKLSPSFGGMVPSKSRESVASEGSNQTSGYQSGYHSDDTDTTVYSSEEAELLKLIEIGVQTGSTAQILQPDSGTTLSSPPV
As to the kind of experiment: flow cytometry on HUVECs, soluble ligand titrated 3 h at 4 C, anti-FLAG-PE. The method, then:
as §3, §4

Experiment [8] addresses T4, VEGFR2-His (residues 1-764 of VEGFR2, …). Put plainly: KinExA, equilibrium titration in solution, n-curve analysis. The procedure:
(§7) For KinExA measurements, a constant amount of PDGF/VEGF ligand is titrated with differing concentrations of PDGRβ-His or VEGFR2-His. The solutions are incubated for an appropriate amount of time to allow the ligand-receptor binding reaction to reach equilibrium. The solution is then briefly exposed to a solid support containing immobilized PDGFR or VEGFR, which captures unbound ligand. The amount of ligand bound to the solid support is then detected using a fluorescently-labeled antibody. […] For each binding interaction measured, curves for two concentrations of the constant ligand are performed. By performing two experiments with fixed ligand concentrations above and below the Kd, and fitting both sets of data with a nonlinear regression analysis, a more accurate measurement for the affinity can be obtained.
(§8) Kinetic Exclusion Assay (KinExA). All experiments were performed on a KinExA 3200 instrument with siliconized flow cell (Sapidyne Instruments Inc). […] 30 μg of receptor was incubated in 1 ml of 50 mM sodium bicarbonate, 0.5 M sodium citrate buffer, pH 8.3, for 2 hr at room temperature with rocking. Beads were allowed to settle by gravity and liquid removed. Beads were blocked by incubating in 1 ml of 10 mg/ml BSA in 1 M Tris buffer, pH 8.0, for 1 hr at room temperature with rocking, and stored in blocking buffer at 4° C. for up to one week until use. Running buffer contained PBS with 10 mM imidazole and 0.02% sodium azide. Samples were prepared in running buffer with 1 mg/ml BSA. Binding reactions were prepared with a fixed concentration of PDGF/VEGF ligands and dilution series of PDGFR or VEGFR. Captured PDGF/VEGF ligands were detected using a Dylight 649-conjugated anti-FLAG antibody (Rockland) at 1:1000 dilution in sample buffer. Kinetic experiments were performed with the “Kinetics Injection” method defined in the KinExA software. Data were analyzed with KinExA Pro Software.

Experiment [9] deals with T2, PDGFRβ-His (residues 1-314 of PDGFR-β …). The description is as above. The method, then:
as §7, §8

Experiment [10] addresses T3, mouse VEGFR on SVR murine angiosarcoma …. As to the kind of experiment: flow cytometry on SVR cells, soluble ligand titrated 3 h at 4 C, anti-FLAG-PE. The method, then: as §3, §4
Experiment [11] has as its target T5, human VEGFR on human umbilical vein …. Put plainly: flow cytometry on HUVECs. The procedure: as §3, §4
Experiment [12] shares this target. Put plainly: cell-based or functional assay.
Experiment [13] addresses PDGFRβ on DiscoveRx PathHunter U2OS PDGFRβ reporter cells (UniProt P09619 33-1106, limits assumed). Put plainly: cell-based or functional assay.
The target of experiment [14] is T4, VEGFR2-His (residues 1-764 of VEGFR2, …). As to the kind of experiment: KinExA, calculated from Kd and kon. The method, then:
(§9) By performing two experiments with fixed ligand concentrations above and below the Kd, and fitting both sets of data with a nonlinear regression analysis, a more accurate measurement for the affinity can be obtained.
as §5, §6

For experiment [15], the target named is T2, PDGFRβ-His (residues 1-314 of PDGFR-β …). Put plainly: KinExA, calculated from Kd and kon. The procedure: as §9, §5, §6
Experiment [16] deals with T5, human VEGFR on human umbilical vein …. Put plainly: flow cytometry titration of the soluble FLAG-tagged protein on HUVECs, anti-FLAG detection. The method, then: as §3, §4
In experiment [17] the target is T4, VEGFR2-His (residues 1-764 of VEGFR2, …). As to the kind of experiment: KinExA. The procedure:
as §7
(§10) Kinetic Exclusion Assay (KinExA). All experiments were performed on a KinExA 3200 instrument with siliconized flow cell (Sapidyne Instruments Inc). […] 30 μg of receptor was incubated in 1 ml of 50 mM sodium bicarbonate, 0.5 M sodium citrate buffer, pH 8.3, for 2 hr at room temperature with rocking. Beads were allowed to settle by gravity and liquid removed. […] Captured PDGF/VEGF ligands were detected using a Dylight 649-conjugated anti-FLAG antibody (Rockland) at 1:1000 dilution in sample buffer. […] Data were analyzed with KinExA Pro Software.
(In KinExA the mixture passes briefly over coated beads that capture the unbound partner.)

Experiment [18] concerns the target T2, PDGFRβ-His (residues 1-314 of PDGFR-β …). As to the kind of experiment: KinExA. The method, then:
as §7, §10

In experiment [19] the target is T3, mouse VEGFR on SVR murine angiosarcoma …. Put plainly: flow cytometry on SVR cells. The method, then:
as §3, §4

Experiment [20] has as its target T5, human VEGFR on human umbilical vein …. Put plainly: flow cytometry on HUVECs, soluble ligand titrated 3 h at 4 C, anti-FLAG-PE. The source holds these as a separate data set.

For orientation: Kd means the equilibrium constant for the complex coming apart. The EC50 (read off the curve) is the concentration needed to bring the measured effect to its halfway point. A lower EC50 (read off the curve) goes with an effect from little substance. A word on the kon: it is a measure of how fast the partners come together. Broadly, the koff is the first-order rate constant of dissociation.

T1 sequence (P09619 33-314 limits assumed, form in doubt): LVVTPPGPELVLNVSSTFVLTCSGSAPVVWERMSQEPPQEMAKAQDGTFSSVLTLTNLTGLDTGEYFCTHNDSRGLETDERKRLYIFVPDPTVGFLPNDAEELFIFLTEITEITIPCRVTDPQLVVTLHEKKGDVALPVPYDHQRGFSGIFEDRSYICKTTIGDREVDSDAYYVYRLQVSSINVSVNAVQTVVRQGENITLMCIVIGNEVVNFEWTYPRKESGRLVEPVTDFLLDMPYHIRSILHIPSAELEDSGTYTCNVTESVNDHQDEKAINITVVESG

B1: scPDGF, yeast-displayed (ligand)
chain: IAEPAMIAECKTRTEVFEISRRLIDRTNANFLVWPPCVEVQRCSGCCNNRNVQCRPTQVQLRPVQVRKIEIVRKKPIFKKATVTLEDHLACKCETVAAGSTSGSGKSSEGKGIAEPAMIAECKTRTEVFEISRRLIDRTNANFLVWPPCVEVQRCSGCCNNRNVQCRPTQVQLRPVQVRKIEIVRKKPIFKKATVTLEDHLACKCETVAA
As for B1, the Kd in experiment [1] is around 0.04 nM; in [2] it was 0.028 nM; in [3], 310 nM.

B2: PVGS, soluble, FLAG and hexahistidine tags (designed binder)
chain: DYKDDDDKIAEPAMIAECHPIETLVDILQEYPDEIGYIFKPSCVPLMRCGGCCNNRNVQCRPTEESNITMQIMRIKPHRGQHIGEMSFLQHNKCRCETVAAGGGGSGGGGSGGGGSGGGGSEVVKFMDVYQRSYCKTRTEVFEISRRLIDATNANFLVWPPCVEVQRCSGCCNHEGLECVPTQVQLRPVQVRKIEFVRKKPIFKKATVTLEDHLACECRPKKDHHHHHH
notes: Secreted from S. cerevisiae YVH10 at 20 C and treated with Endo Hf
On to B2, for which the “EC50 (read off the curve)” value in experiment [4] is around 0.5 nM; in experiment [16] it was around 0.8 nM. The kon amounted to 680000 M⁻¹ s⁻¹ in experiment [5] and 2e+07 M⁻¹ s⁻¹ in experiment [6]. Moreover, the Kd was found to be 0.77 nM in [7], 0.014 nM in experiment [8], 0.0067 nM in [9] and 0.45 nM in [10]. The “fold improvement in affinity compared to PV6” value amounted to 14 fold in experiment [11], 2700 fold in [17] and 78 fold in [19]. Further, in experiment [12], the “IC50 of inhibition of HUVEC proliferation induced by 0.5 nM VEGF165, alamarBlue” value was 1.2 nM. In addition, in experiment [13], the “IC50 of inhibition of stimulation by 0.5 nM PDGF-BB, PathHunter PDGFRβ reporter cells” value was found to be 1.1 nM. Moreover, the koff was 9.6e-06 s⁻¹ in [14] and 0.00013 s⁻¹ in experiment [15]. For the same molecule, the “fold improvement in binding affinity compared to PV6” value in experiment [18] amounted to 130 fold.

B3: scVEGFwt, single-chain version of VEGF-A, soluble, FLAG and hexahistidine tags (ligand)
chain: DYKDDDDKEVVKFMDVYQRSYCHPIETLVDIFQEYPDEIEYIFKPSCVPLMRCGGCCNDEGLECVPTEESNITMQIMRIKPHQGQHIGEMSFLQHNKCECRPKKDGSTSGSGKSSEGKGEVVKFMDVYQRSYCHPIETLVDIFQEYPDEIEYIFKPSCVPLMRCGGCCNDEGLECVPTEESNITMQIMRIKPHQGQHIGEMSFLQHNKCECRPKKDHHHHHH
notes: Expressed in Pichia pastoris GS115; also called single-chain VEGF-A
On to B3, for which the Kd in experiment [20] turned out to be 1.5 nM; in experiment [7], 18 nM; in experiment [10], 10 nM. The “EC50 (read off the curve)” value in experiment [16] is around 10 nM.
